Results reported in patent US20230079150A1, “METHODS FOR PREVENTION OR TREATMENT OF VIRUS-INDUCED ORGAN INJURY OR FAILURE WITH IL-22 DIMER” (priority 2020, published 2023).

Test system: H1N1 influenza (A/PR8 strain)
Type: in vivo, C57BL/6 mice

B1: F-652: recombinant IL-22 dimer consisting of two monomeric subunits each comprising a sequence shown in SEQ ID NO: 24 (protein)
chain 1: APISSHCRLDKSNFQQPYITNRTFMLAKEASLADNNTDVRLIGEKLFHGVSMSERCYLMKQVLNFTLEEVLFPQSDRFQPYMQEVVPFLARLSNRLSTCHIEGDDLHIQRNVQKLKDTVKKLGESGEIKAIGELDLLFMSLRNACIGSGGGSGGGGSGGGGSVECPPCPAPPVAGPSVFLFPPKPKDTLMISRTPEVTCVVVDVSHEDPEVQFNWYVDGVEVHNAKTKPREEQFNSTFRVVSVLTVVHQDWLNGKEYKCKVSNKGLPASIEKTISKTKGQPREPQVYTLPPSREEMTKNQVSLTCLVKGFYPSDIAVEWESNGQPENNYKTTPPMLDSDGSFFLYSKLTVDKSRWQQGNVFSCSVMHEALHNHYTQKSLSLSPGK
chain 2: B1 chain 1
modifications: homodimer
- decreased small airway resistance at baseline (pattern differences) (6-week treatment groups): not seen
- input impedance (Re Zrs): baseline resistance in small airways (aged mice, not young mice, prior to airway recruitment maneuver): significantly improves baseline resistance
